Source: patent US20240294632A1 (XL PROTEIN, published 2024)

Assays:
PAS #1(600)-Leptin [1] = biological target: T1, PAS #1(600)-Leptin; experiment: ELISA, Fab titrated on coated PAS#1(600)-Leptin
T1 chain: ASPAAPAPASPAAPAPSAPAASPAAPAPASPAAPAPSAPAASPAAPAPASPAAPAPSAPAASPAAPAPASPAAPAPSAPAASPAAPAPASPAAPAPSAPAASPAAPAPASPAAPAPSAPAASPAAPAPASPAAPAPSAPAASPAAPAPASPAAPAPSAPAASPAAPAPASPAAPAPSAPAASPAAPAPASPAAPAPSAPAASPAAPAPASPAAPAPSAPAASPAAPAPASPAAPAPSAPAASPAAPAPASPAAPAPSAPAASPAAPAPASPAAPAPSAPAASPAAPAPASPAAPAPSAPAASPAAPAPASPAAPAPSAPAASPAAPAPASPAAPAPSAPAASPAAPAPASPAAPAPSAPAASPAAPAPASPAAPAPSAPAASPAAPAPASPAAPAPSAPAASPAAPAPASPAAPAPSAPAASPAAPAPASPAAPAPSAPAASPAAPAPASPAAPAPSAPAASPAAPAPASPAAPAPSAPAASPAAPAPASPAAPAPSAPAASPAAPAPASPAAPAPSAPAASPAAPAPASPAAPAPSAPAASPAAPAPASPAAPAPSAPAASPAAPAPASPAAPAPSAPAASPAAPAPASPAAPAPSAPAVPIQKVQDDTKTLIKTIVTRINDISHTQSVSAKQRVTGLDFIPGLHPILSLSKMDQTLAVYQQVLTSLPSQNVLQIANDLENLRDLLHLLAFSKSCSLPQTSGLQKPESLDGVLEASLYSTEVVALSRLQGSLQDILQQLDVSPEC

PAS #1(200)-IL1Ra [2] = biological target: T2, PAS #1(200)-IL1Ra; experiment: SPR, biotinylated antigen on CAPture chip, Fab as analyte, 1:1 model
T2 construct: PASylated fusion protein produced in E. coli; Biotinylated for the SPR measurements with Fabs

P/A #1 sequence = biological target: T3, P/A #1 sequence; experiment: ELISA and SPR with Fabs
T3 construct: in sentences on specificity it stands for P/A #1 polypeptides in general
T3 peptide: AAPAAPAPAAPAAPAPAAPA

PAS #1(600)-Leptin [3] = biological target: T1, PAS #1(600)-Leptin; experiment: ELISA, antigen coated, Fab titrated
APSA(200)-TrxA = biological target: T4, APSA(200)-TrxA; experiment: SPR, biotinylated antigen on CAPture chip, Fab as analyte, 1:1 model
T4 construct: Biotinylated and immobilised on a biotin CAPture chip; also called thioredoxinA-APSA(200)

P/A #1(200)-IL1Ra [4] = biological target: T5, P/A #1(200)-IL1Ra; experiment: as above
T5 construct: PASylated fusion protein produced in E. coli; Biotinylated for the SPR measurements with Fabs

APSA(200)-IL1Ra [5] = biological target: T6, APSA(200)-IL1Ra; experiment: ELISA, antigen coated, Fab titrated
T6 construct: Fusion protein produced in E. coli; Labelled with DIG-NHS in the MAb capture ELISA

P/A #1(600) polypeptide = biological target: T7, P/A #1(600) polypeptide; experiment: ELISA, antigen coated, Fab titrated
T7 chain: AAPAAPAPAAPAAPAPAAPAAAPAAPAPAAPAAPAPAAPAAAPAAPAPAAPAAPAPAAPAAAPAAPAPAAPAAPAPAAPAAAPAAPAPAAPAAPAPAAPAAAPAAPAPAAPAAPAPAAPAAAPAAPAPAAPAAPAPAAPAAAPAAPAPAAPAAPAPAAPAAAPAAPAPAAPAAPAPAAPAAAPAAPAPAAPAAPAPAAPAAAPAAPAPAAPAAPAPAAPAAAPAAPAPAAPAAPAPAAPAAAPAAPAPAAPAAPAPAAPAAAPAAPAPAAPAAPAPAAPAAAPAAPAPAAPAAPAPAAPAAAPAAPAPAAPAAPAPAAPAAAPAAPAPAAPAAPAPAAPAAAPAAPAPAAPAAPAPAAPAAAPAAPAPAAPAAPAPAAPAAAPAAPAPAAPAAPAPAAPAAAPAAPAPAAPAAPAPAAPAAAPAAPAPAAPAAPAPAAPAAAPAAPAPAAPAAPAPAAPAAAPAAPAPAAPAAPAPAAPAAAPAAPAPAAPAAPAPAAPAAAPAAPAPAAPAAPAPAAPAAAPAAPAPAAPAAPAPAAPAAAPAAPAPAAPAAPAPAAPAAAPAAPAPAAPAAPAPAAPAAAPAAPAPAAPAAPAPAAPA

APSA(200)-IL1Ra [6] = biological target: T6, APSA(200)-IL1Ra; experiment: MAb capture ELISA, hybridoma supernatant on anti-mouse IgG Fc, DIG-labelled antigen titrated
P/A #1(200)-IL1Ra [7] = biological target: T5, P/A #1(200)-IL1Ra; experiment: SPR, MAb from hybridoma supernatant captured by anti-mouse antibody, antigen as analyte, bivalent analyte model
APSA(200)-IL1Ra [8] = biological target: T6, APSA(200)-IL1Ra; experiment: as above
IL1Ra (Kineret/Anakinra) = biological target: T8, IL1Ra (Kineret/Anakinra) (UniProt P18510 26-177); experiment: western blot, hybridoma supernatant 1:2000
T8 construct: Commercial drug product; also called non-PASylated protein version

hu4D5-P/A #1(200) = biological target: T9, hu4D5-P/A #1(200); experiment: MAb capture ELISA, hybridoma supernatant on anti-mouse IgG Fc, antigen titrated
T9 construct: Detected with anti-human kappa light chain antibody in the capture ELISA

hu4D5-PAS #1(200) = biological target: T10, hu4D5-PAS #1(200); experiment: as above
T10 construct: Detected with anti-human kappa light chain antibody in the capture ELISA

[9] = biological target: T11, recombinant Galectin-3 carrying a C173T mutation and a C-terminal Strep-tag II (Homo sapiens (Human), UniProt P17931 2-250); experiment: SPR, PAS-Fab captured by MAb 1.1, Galectin-3 as analyte, single cycle kinetics, 1:1 Langmuir model
T11 construct: the wording would also allow that it is the Strep-tag II alone

PAS #1(600)-Leptin [10] = biological target: T1, PAS #1(600)-Leptin; experiment: ELISA, Fab titrated on PAS#1(600)-Leptin (x axis: Fab concentration)
P/A#1(600)-GMCSF = experiment: ELISA, Fab titrated on P/A#1(600)-GMCSF (x axis: Fab concentration)
IL1Ra-PAS#1(800) = experiment: ELISA, Fab titrated on IL1Ra-PAS#1(800) (x axis: Fab concentration)
PAS #1(200)-IL1Ra [11] = biological target: T2, PAS #1(200)-IL1Ra; experiment: SPR, MAb from hybridoma supernatant captured by anti-mouse antibody, antigen as analyte, bivalent analyte model

T2 sequence (chain, as listed by the source limits assumed): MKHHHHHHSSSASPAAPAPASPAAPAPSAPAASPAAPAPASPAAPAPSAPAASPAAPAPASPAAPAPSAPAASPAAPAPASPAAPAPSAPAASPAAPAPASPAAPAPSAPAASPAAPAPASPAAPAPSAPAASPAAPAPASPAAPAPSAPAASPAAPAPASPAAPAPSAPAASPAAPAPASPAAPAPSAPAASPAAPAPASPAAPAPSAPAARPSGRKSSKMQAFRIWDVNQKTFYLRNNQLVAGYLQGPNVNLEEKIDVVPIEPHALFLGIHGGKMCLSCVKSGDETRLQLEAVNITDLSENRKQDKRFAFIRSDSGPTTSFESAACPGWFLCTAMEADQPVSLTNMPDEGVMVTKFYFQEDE
T11 sequence (P17931 other isoform, or with tags, fused parts or gaps C173T C173T limits assumed): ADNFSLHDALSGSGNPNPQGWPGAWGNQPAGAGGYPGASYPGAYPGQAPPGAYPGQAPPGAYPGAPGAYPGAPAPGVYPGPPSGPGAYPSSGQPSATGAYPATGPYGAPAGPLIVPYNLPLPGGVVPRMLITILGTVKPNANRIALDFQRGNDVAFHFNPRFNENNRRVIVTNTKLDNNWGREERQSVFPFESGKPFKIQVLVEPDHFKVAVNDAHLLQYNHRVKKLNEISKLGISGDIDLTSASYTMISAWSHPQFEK
T8 sequence (P18510 26-177 limits assumed): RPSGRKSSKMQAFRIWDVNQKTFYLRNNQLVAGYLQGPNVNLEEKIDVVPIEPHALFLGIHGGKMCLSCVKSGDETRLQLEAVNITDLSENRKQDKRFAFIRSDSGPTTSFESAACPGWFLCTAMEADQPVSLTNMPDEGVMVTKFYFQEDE
Sequence of IL1Ra-PAS#1(800) (chain, as listed by the source): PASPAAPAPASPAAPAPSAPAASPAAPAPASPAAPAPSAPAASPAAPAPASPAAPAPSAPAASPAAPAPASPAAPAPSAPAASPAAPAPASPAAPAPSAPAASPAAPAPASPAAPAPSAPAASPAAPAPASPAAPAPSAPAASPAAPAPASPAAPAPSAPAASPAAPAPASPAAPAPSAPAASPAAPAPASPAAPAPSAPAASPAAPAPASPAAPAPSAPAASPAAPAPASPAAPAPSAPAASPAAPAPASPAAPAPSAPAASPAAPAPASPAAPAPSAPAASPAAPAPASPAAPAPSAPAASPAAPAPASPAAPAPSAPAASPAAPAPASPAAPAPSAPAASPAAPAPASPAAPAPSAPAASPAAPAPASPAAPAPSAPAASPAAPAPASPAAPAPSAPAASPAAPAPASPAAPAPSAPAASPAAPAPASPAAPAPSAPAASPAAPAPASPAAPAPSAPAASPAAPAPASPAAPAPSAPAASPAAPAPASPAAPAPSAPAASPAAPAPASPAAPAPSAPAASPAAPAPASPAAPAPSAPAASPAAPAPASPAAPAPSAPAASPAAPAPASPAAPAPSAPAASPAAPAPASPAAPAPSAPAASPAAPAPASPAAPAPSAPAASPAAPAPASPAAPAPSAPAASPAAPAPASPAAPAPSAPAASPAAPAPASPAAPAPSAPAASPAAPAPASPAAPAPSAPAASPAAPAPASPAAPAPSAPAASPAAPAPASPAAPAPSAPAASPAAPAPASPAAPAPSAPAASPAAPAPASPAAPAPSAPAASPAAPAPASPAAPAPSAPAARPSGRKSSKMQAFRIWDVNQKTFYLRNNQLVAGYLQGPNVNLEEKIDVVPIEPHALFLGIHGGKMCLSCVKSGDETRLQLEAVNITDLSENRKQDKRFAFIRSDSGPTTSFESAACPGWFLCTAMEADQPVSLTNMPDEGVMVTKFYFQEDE
Sequence of P/A#1(600)-GMCSF (fusion protein, as listed by the source): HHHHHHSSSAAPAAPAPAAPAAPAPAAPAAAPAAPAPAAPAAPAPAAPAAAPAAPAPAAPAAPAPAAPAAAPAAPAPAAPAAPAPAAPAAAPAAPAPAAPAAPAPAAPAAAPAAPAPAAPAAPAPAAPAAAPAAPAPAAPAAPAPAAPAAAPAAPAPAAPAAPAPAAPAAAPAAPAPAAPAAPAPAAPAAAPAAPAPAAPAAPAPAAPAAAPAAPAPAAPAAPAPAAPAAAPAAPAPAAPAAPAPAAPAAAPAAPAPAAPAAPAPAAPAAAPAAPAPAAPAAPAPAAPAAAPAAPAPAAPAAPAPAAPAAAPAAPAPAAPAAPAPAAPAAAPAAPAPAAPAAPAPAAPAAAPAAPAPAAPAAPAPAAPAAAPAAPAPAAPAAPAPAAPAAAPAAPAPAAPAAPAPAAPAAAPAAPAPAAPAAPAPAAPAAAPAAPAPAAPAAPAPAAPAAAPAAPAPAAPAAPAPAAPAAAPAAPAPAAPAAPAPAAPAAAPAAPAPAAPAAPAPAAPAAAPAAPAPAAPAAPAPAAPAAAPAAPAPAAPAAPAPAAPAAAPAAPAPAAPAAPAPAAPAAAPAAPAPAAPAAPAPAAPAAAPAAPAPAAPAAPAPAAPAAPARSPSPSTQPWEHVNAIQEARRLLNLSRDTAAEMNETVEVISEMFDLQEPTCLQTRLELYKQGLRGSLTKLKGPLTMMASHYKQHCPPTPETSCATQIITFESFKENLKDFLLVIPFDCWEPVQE

B1: Fab fragment of Anti-PA(S) MAb 1.1 (Fab, V domains shown)
VH: QVQLKESGPGLVAPSQSLSITCTVSGFSLTGYGVNWVRQPPGKGLEWLGMIWGDGITDYNSALKSRLSISKDNSKSQVFLKMNSLQTDDTARYYCARDYYGRRYYAMDYWGQGTSVTVSS
VL: DIVLTQSPASLAVSLGQRATISCRASKSVSSSGYNYMFWYQQKPGQPPKLLIYLASNLESGVPDRFWGSGSGTDFTLNIHPVEEEDAATYYCQHSRELPLTFGAGTKLELKR
notes: flanking restriction sites were introduced for subcloning; also called Anti-PA(S) MAb 1.1 Fab; anti-PAS #1 Fab
EC50 (read off the curve) (PAS #1(600)-Leptin [1]): ~10 nM | Kd (PAS #1(200)-IL1Ra [2]): 8800 nM | binding result (P/A #1 sequence): no binding | Kd (PAS #1(600)-Leptin [3]): 23 nM

B2: Fab fragment of Anti-PA(S) MAb 3.2 (Fab, V domains shown)
VH: QVQLQQSGAELVRPGASVKLSCKALGYTFTDYEMFWVKQTPVHGLECIGTIHPGSGGTAYNQKFKGKATLTADKSSSTAYMELSSLTSEDSAVYYCTRNDRGSWGQGTTLTVSS
VL: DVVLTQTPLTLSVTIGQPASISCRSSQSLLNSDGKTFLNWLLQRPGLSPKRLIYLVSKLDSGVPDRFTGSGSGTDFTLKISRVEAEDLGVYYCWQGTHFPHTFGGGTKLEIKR
notes: also called Anti-PA(S) MAb 3.2 Fab; anti-APSA antibody fragment
Kd (APSA(200)-TrxA): 137 nM | Kd (P/A #1(200)-IL1Ra [4]): 446 nM | Kd (APSA(200)-IL1Ra [5]): 1.6 nM | Kd (P/A #1(600) polypeptide): 48 nM | Kd (PAS #1(600)-Leptin [3]): 311 nM

B3: Anti-PA(S) MAb 3.2 (antibody, V domains shown)
VH: QVQLQQSGAELVRPGASVKLSCKALGYTFTDYEMFWVKQTPVHGLECIGTIHPGSGGTAYNQKFKGKATLTADKSSSTAYMELSSLTSEDSAVYYCTRNDRGSWGQGTTLTVSS
VL: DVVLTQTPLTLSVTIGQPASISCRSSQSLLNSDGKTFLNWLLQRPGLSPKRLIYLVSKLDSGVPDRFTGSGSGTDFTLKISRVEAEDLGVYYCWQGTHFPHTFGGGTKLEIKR
notes: Mouse monoclonal IgG from hybridoma (culture supernatant)
Kd (APSA(200)-IL1Ra [6]): 0.251 nM | Kd (P/A #1(200)-IL1Ra [7]): 20 nM | Kd (APSA(200)-IL1Ra [8]): 0.108 nM | binding result (IL1Ra (Kineret/Anakinra)): no binding | Kd (hu4D5-P/A #1(200)): 0.4 nM | Kd (hu4D5-PAS #1(200)): 294 nM

B4: anti-Galectin-PAS(200) Fab fragment (Fab)
chain 1: QIQLVQSGAEVKKPGESLKISCKVSGYTFTDYAIHWVRQMPGKGLKWMGWINTYTGKPIYADDFKGQVIISLDKSINTAYLQWSSLKASDTAIYYCARGTMMASLDYWGQGTTVTVSSASTKGPSVFPLAPSSKSTSGGTAALGCLVKDYFPEPVTVSWNSGALTSGVHTFPAVLQSSGLYSLSSVVTVPSSSLGTQTYICNVNHKPSNTKVDKKVEPKSCHHHHHH
chain 2: DVVMTQSPSSLSASVGDRVTITCKSSQSLVHSDGKTYLSWIQQKPGKAPKGLIYLVSKLDSGVPSRFSGSGSETDFTLTISSLQPEDSATYYCWQATHFPLTFGPGTKLEIKRTVAAPSVFIFPPSDEQLKSGTASVVCLLNNFYPREAKVQWKVDNALQSGNSQESVTEQDSKDSTYSLSSTLTLSKADYEKHKVYACEVTHQGLSSPVTKSFNRGECASPAAPAPASPAAPAPSAPAASPAAPAPASPAAPAPSAPAASPAAPAPASPAAPAPSAPAASPAAPAPASPAAPAPSAPAASPAAPAPASPAAPAPSAPAASPAAPAPASPAAPAPSAPAASPAAPAPASPAAPAPSAPAASPAAPAPASPAAPAPSAPAASPAAPAPASPAAPAPSAPAASPAAPAPASPAAPAPSAPAA
notes: also called PASylated humanized anti-Galectin Fab fragment; PAS-Fab
Kd [9]: 0.0038 nM | koff [9]: 3e-05 s⁻¹ | kon [9]: 7.9e+06 M⁻¹ s⁻¹

B5: Fab fragment of Anti-PA(S) MAb 2.1 (Fab, V domains shown)
VH: QVTLKESGPGILQPSQTLSLTCSFSGFSLSTYDMGVGWIRQPSGKGLEWLANIWWNDNKYYNSALKSRLTISKDTSNNQVFLKISSVDATDTATYYCAQMRDNYGVWFAFWGQGTLVTVSA
VL: DIVMSQSPSSLAVSVGEKVTMSCKSSQSLFYSNREKNYLAWYQQKPGQSPKLLIYWASTRESGVPDRFTGSGSGTDFTLTISNVKAEDLAVYYCQQYYNYPTFGAGTKLELKR
notes: also called Anti-PA(S) MAb 2.1 Fab; anti-P/A #1 Fab
Kd (PAS #1(200)-IL1Ra [2]): 4.4 nM | Kd (P/A #1(200)-IL1Ra [4]): 648 nM | EC50 (read off the curve) (PAS #1(600)-Leptin [10]): ~2 nM | EC50 (read off the curve) (P/A#1(600)-GMCSF): ~1 nM | Kd (P/A #1(600) polypeptide): 2 nM | Kd (PAS #1(600)-Leptin [3]): 2.2 nM | EC50 (read off the curve) (IL1Ra-PAS#1(800)): ~2 nM

B6: Anti-PA(S) MAb 2.2 (antibody, V domains shown)
VH: QVTLKESGPGILQPSQTLSLTCSFSGFSLNTYGMGVGWIRQPSGKGLEWLANIWWTDDKYYNSVLKSRLTISKDTFNNQVFLKISSVDTADTATYYCAQLAYHDNPWFAYWGQGTLVTVSA
VL: DIVMSQSPSSLAVSVGEKVTLSCKSSQSLLYSNNQKNYLAWYQQKPGQSPKLLIYWASTRESGVPDRFTGSGSGTDFTLTISSVKAEDLAVYYCQQYYNYPTFGGGTKLEIKR
notes: Mouse monoclonal IgG from hybridoma (culture supernatant); also called 3F3E2
Kd (PAS #1(200)-IL1Ra [11]): 22 nM | Kd (P/A #1(200)-IL1Ra [7]): 1.1 nM | binding result (IL1Ra (Kineret/Anakinra)): no binding | Kd (hu4D5-P/A #1(200)): 69 nM

B7: Fab fragment of Anti-PA(S) MAb 2.2 (Fab, V domains shown)
VH: QVTLKESGPGILQPSQTLSLTCSFSGFSLNTYGMGVGWIRQPSGKGLEWLANIWWTDDKYYNSVLKSRLTISKDTFNNQVFLKISSVDTADTATYYCAQLAYHDNPWFAYWGQGTLVTVSA
VL: DIVMSQSPSSLAVSVGEKVTLSCKSSQSLLYSNNQKNYLAWYQQKPGQSPKLLIYWASTRESGVPDRFTGSGSGTDFTLTISSVKAEDLAVYYCQQYYNYPTFGGGTKLEIKR
notes: also called Anti-PA(S) MAb 2.2 Fab; anti-P/A #1 MAb 2.2 Fab
Kd (P/A #1(200)-IL1Ra [4]): 7000 nM | Kd (P/A #1(600) polypeptide): 8 nM
